Laboratory results reported in US20050215503, “HIF oligonucleotide decoy molecules” (published 2005).

Key:
[1] = target: T1, HIF-1 (HIF-1alpha/HIF-1beta (ARNT) heterodimer) (UniProt Q16665;P27540 Q16665:1-826,P27540:2-789); experiment: competition; 2.5-fold molar excess; details: protein: extract; tags: none (endogenous, nuclear extract)
[2] = target: T1, HIF-1 (HIF-1alpha/HIF-1beta (ARNT) …); experiment: competition; TransAM; details: protein: extract; tags: none (endogenous, nuclear extract)
Method: To assess the relative affinities of oligonucleotides for a HIF-1α containing complex, the HIF-1 TransAM assay (Active Motif, Catalog # 47096) was utilized. The assay was performed according to manufacturer's instructions. Briefly, a double-stranded oligonucletide containing the hypoxia response element (HRE) was immobilized on a 96-well plate. A nuclear extract containing HIF-1α complexes was incubated and allowed to bind to the immobilized oligonucleotide. The unbound material was washed away and the bound HIF-1α detected using an antibody that specificially recognizes HIF-1α. The anti-HIF-1α antibody was detected by a secondary antibody labeled with horseradish peroxidase (HRP), and the amount of HRP in each well was measured using a calorimetric substrate reaction and read using a microplate spectrophotometer.
The ability of candidate decoy molecules to compete for binding of HIF-1α to the HRE element-immobilized on the plate were measured and compared to reveal relative binding affinities. Candidate decoys were added in increasing molar ratios (relative to the amount of oligo immobilized on the plate) to compete for binding to the HIF-1α containing complexes. The amounts of decoys added to the assay included 0.625, 1.25, 2.5, 5, 10 and 20 fold molar excess. A well containing a competing decoy able to bind HIF-1α with high affinity would give a lower absorbance reading as compared to a decoy with low affinity for HIF-1α. All potential decoys were then compared and ranked in order to assess their relative binding affinities.
The screen was conducted using different decoy concentrations. For each UV absorbance reading, normalization was done by calculating the ratio of absorbance readings of sample vs. wild type control. The bigger ratio represents less competition of binding with HIF-1α when compared with wild-type control. The smaller (smaller than 1.0 or close to 1.0) ratios represent better binding or better competition.

T1 sequence (Q16665 whole entry, chain 1 of 2): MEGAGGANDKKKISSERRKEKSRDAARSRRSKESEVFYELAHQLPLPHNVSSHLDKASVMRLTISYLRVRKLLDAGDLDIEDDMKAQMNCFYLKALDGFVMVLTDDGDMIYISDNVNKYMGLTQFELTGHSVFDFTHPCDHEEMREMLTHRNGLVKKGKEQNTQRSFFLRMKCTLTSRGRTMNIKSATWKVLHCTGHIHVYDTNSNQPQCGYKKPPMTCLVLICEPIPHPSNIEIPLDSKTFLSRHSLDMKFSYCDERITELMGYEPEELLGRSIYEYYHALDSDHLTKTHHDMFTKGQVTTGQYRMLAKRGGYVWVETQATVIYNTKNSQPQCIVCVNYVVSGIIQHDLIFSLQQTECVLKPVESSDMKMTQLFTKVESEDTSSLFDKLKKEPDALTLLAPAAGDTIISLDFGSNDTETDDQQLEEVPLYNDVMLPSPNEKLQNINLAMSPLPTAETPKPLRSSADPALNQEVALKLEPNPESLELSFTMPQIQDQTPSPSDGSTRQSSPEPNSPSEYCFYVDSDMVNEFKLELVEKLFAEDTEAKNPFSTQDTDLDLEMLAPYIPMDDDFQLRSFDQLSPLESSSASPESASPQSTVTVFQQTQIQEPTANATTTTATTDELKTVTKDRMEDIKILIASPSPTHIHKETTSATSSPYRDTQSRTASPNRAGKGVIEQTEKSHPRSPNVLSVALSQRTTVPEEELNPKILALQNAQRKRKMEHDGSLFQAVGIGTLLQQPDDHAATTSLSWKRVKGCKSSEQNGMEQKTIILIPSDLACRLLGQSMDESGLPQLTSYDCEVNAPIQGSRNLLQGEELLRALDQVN
T1 sequence (P27540 2-789, chain 2 of 2): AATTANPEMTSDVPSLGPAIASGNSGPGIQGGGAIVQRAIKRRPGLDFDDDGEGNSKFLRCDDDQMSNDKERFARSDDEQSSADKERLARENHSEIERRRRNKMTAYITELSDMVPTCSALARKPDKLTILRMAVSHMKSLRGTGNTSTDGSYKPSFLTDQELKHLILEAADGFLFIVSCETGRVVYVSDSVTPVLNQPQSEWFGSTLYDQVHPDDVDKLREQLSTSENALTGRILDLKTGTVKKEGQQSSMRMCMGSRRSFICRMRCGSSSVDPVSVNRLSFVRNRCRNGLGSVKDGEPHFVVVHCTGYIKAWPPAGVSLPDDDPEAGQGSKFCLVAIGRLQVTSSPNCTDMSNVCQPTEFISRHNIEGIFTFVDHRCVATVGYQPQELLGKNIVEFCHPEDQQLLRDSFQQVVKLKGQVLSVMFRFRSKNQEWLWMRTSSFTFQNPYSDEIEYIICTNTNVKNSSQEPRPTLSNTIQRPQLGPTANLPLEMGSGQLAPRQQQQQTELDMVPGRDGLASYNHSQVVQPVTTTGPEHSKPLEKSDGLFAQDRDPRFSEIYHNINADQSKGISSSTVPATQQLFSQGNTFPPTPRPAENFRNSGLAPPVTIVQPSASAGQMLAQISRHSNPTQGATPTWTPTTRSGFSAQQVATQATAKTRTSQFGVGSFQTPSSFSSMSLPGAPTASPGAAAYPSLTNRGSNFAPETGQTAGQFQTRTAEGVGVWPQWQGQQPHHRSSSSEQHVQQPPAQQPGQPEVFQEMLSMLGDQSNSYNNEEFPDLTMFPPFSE

B1: 895/896 H2/H2 (dsDNA)
DNA 1: CACCAGCGTACGTGCCTCAGG
DNA 2: CCTGAGGCACGTACGCTGGTG
modifications: PS at 2 linkages from 3' end, both strands
binding signal [1]: 0.86 ratio

B2: 895/896 H3/H3 (dsDNA)
DNA 1: CACCAGCGTACGTGCCTCAGG
DNA 2: CCTGAGGCACGTACGCTGGTG
modifications: PS at 3 linkages from 3' end, both strands
binding signal [1]: 1.33 ratio

B3: 895/896 H4/H4 (dsDNA)
DNA 1: CACCAGCGTACGTGCCTCAGG
DNA 2: CCTGAGGCACGTACGCTGGTG
modifications: PS at 4 linkages from 3' end, both strands
binding signal [1]: 1.42 ratio

B4: 895/896 H5/H5 (dsDNA)
DNA 1: CACCAGCGTACGTGCCTCAGG
DNA 2: CCTGAGGCACGTACGCTGGTG
modifications: PS at 5 linkages from 3' end, both strands
binding signal [1]: 1.34 ratio

B5: 895/896 H6/H6 (dsDNA)
DNA 1: CACCAGCGTACGTGCCTCAGG
DNA 2: CCTGAGGCACGTACGCTGGTG
modifications: PS at 6 linkages from 3' end, both strands
binding signal [1]: 1.01 ratio

B6: 895/896 H3/PS (dsDNA)
DNA 1: CACCAGCGTACGTGCCTCAGG
DNA 2: CCTGAGGCACGTACGCTGGTG
modifications: 895: PS at 3 linkages from 3' end; 896: full PS
binding signal [1]: 1.38 ratio

B7: 895/896 PS/PS (dsDNA)
DNA 1: CACCAGCGTACGTGCCTCAGG
DNA 2: CCTGAGGCACGTACGCTGGTG
modifications: full PS both strands
binding signal [1]: 0.98 ratio

B8: 895/896 PS/PO (dsDNA)
DNA 1: CACCAGCGTACGTGCCTCAGG
DNA 2: CCTGAGGCACGTACGCTGGTG
modifications: 895: full PS; 896: unmodified
binding signal [1]: 0.52 ratio

B9: 895/896 H5/PO (dsDNA)
DNA 1: CACCAGCGTACGTGCCTCAGG
DNA 2: CCTGAGGCACGTACGCTGGTG
modifications: 895: PS at 5 linkages from 3' end; 896: unmodified
binding signal [1]: 1.27 ratio

B10: decoy 981 (dsDNA)
DNA 1: CCAGCGTACGTGGCTCAGG
DNA 2: CCTGAGCCACGTACGCTGG
binding signal [2]: 1.7 ratio

B11: decoy 985 (dsDNA)
DNA 1: CCAGCGTACGTGACTCAGG
DNA 2: CCTGAGTCACGTACGCTGG
binding signal [2]: 0.91 ratio

B12: decoy 983 (dsDNA)
DNA 1: CCAGCGTACGTGTCTCAGG
DNA 2: CCTGAGACACGTACGCTGG
binding signal [2]: 1.3 ratio

B13: decoy 933 (dsDNA)
DNA 1: CCAGCGTATGTGCCTCAGG
DNA 2: CCTGAGGCACATACGCTGG
binding signal [2]: 3.47 ratio

B14: decoy 935 (dsDNA)
DNA 1: CCAGCGTAAGTGCCTCAGG
DNA 2: CCTGAGGCACTTACGCTGG
binding signal [2]: 2.43 ratio

B15: decoy 937 (dsDNA)
DNA 1: CCAGCGTAGGTGCCTCAGG
DNA 2: CCTGAGGCACCTACGCTGG
binding signal [2]: 2.49 ratio

B16: decoy 845/846 (dsDNA)
DNA 1: GAGCGTACGTGCCTCAGG
DNA 2: CCTGAGGCACGTACGCTC
binding signal [2]: 1.59 ratio

B17: decoy 997 (dsDNA)
DNA 1: CCGGGGCACGTGCCCCAGG
DNA 2: CCTGGGGCACGTGCCCCGG
binding signal [2]: 1.28 ratio

B18: decoy 999 (dsDNA)
DNA 1: CCATGGCACGTGCCTCAGG
DNA 2: CCTGAGGCACGTGCCATGG
binding signal [2]: 1.3 ratio

B19: decoy 851/852 (dsDNA)
DNA 1: CGGAGTACGTGACGGAGC
DNA 2: GCTCCGTCACGTACTCCG
binding signal [2]: 1.41 ratio

B20: decoy 861/862 (dsDNA)
DNA 1: CTAATACGTGCCGCTG
DNA 2: CAGCGGCACGTATTAG
binding signal [2]: 2.18 ratio

B21: decoy 809/810 (dsDNA)
DNA 1: AGGGCCGGACGTGGGGCCCC
DNA 2: GGGGCCCCACGTCCGGCCCT
binding signal [2]: 4.57 ratio

B22: decoy 849/850 (dsDNA)
DNA 1: GCCTACACGTGGGTTCCC
DNA 2: GGGAACCCACGTGTAGGC
binding signal [2]: 2.66 ratio

B23: decoy 817/818 (dsDNA)
DNA 1: CTGCCGACGTGCGCTCCGGAG
DNA 2: CTCCGGAGCGCACGTCGGCAG
binding signal [2]: 4.81 ratio

B24: decoy 823/824 (dsDNA)
DNA 1: TGCATACGTGGGCTCCAACAG
DNA 2: CTGTTGGAGCCCACGTATGCA
binding signal [2]: 4.4 ratio

B25: decoy 843/844 (dsDNA)
DNA 1: GTGCATACGTGGGCTCCA
DNA 2: TGGAGCCCACGTATGCAC
binding signal [2]: 1.7 ratio

B26: decoy 901 (dsDNA)
DNA 1: CACGTGCATACGTGGGCTCCA
DNA 2: TGGAGCCCACGTATGCACGTG
binding signal [2]: 1.6 ratio

B27: decoy 903 (dsDNA)
DNA 1: CACCTGCATACGTGGGCTCCA
DNA 2: TGGAGCCCACGTATGCAGGTG
binding signal [2]: 1.94 ratio

B28: decoy 853/854 (dsDNA)
DNA 1: TTGCTTACGTGCGCCCGG
DNA 2: CCGGGCGCACGTAAGCAA
binding signal [2]: 1.73 ratio

B29: decoy 811/812 (dsDNA)
DNA 1: ACGCTGAGTGCGTGCGGGAC
DNA 2: GTCCCGCACGCACTCAGCGT
binding signal [2]: 3.9 ratio

B30: decoy 879/880 (dsDNA)
DNA 1: GGCTGCTGCAGACGTGCAGGTC
DNA 2: GACCTGCACGTCTGCAGCAGCC
binding signal [2]: 1.4 ratio

B31: decoy 891/892 (dsDNA)
DNA 1: GGCTGCTGCATACGTGCAGGTC
DNA 2: GACCTGCACGTATGCAGCAGCC
binding signal [2]: 1.21 ratio

B32: decoy 887/888 (dsDNA)
DNA 1: GGCTGCACCGTACGTGCTGATC
DNA 2: GATCAGCACGTACGGTGCAGCC
binding signal [2]: 1.89 ratio

B33: decoy 881/882 (dsDNA)
DNA 1: GGCTGCAGGAGACGTGGAGAA
DNA 2: TTCTCCACGTCTCCTGCAGCC
binding signal [2]: 3.62 ratio

B34: decoy 875/876 (dsDNA)
DNA 1: TGCAGACGTGCAGGTC
DNA 2: GACCTGCACGTCTGCA
binding signal [2]: 2.63 ratio

B35: decoy 885/886 (dsDNA)
DNA 1: TACAGACGTGCAGGTC
DNA 2: GACCTGCACGTCTGTA
binding signal [2]: 4.46 ratio

B36: decoy 889/890 (dsDNA)
DNA 1: TGCATACGTGCAGGTC
DNA 2: GACCTGCACGTATGCA
binding signal [2]: 4.14 ratio

B37: decoy 825/826 (dsDNA)
DNA 1: AGGAGACGTGCGAGAA
DNA 2: TTCTCGCACGTCTCCT
binding signal [2]: 5.1 ratio

B38: decoy 863/864 (dsDNA)
DNA 1: AGCAGACGTGCAGGAT
DNA 2: ATCCTGCACGTCTGCT
binding signal [2]: 2.15 ratio

B39: decoy 869/870 (dsDNA)
DNA 1: AGCAGACGTGCAGGGT
DNA 2: ACCCTGCACGTCTGCT
binding signal [2]: 2.28 ratio

B40: decoy 865/866 (dsDNA)
DNA 1: AGCAGACGTGCAGGCA
DNA 2: TGCCTGCACGTCTGCT
binding signal [2]: 2.56 ratio

B41: decoy 883/884 (dsDNA)
DNA 1: AGAAGACGTGCAGGAT
DNA 2: ATCCTGCACGTCTTCT
binding signal [2]: 4.37 ratio

B42: decoy 827/828 (dsDNA)
DNA 1: AGGTTACGTGCGGACA
DNA 2: TGTCCGCACGTAACCT
binding signal [2]: 4.48 ratio
